The values that follow come from PMC5586252, “PP2A-B′ holoenzyme substrate recognition, regulation and role in cytokinesis” (Cell Discovery, 2017).

One test concerns the target B′γ1 regulatory subunit (UniProt Q13362-2 1-449). Put plainly: ITC; 1 mM peptide titrated to 20–50 μM B′γ1; 20 mM HEPES pH 7.5, 200 mM NaCl; VP-ITC. The conditions noted are these: both partners purified. Background: In ITC the heat of successive injections is recorded.
The next test has as its target T1, B′ε regulatory subunit (UniProt Q16537 1-467).
T1 construct: PP2A regulatory subunit B′ε, full-length; prey in a GST pull-down, so probably with the GST tag cleaved by TEV; source: E. coli DH5α, purified (GS4B, anion exchange, gel filtration)
Put plainly: pull-down; about 10 μg GST-tagged B′-binding motif or GST-pCyk4 on glutathione (GS4B) resin; 10 μg holoenzyme, B′ε or PR70 added; 25 mM Tris pH 8.0, 150 mM NaCl, 3 mM DTT; SDS-PAGE, Coomassie. The conditions noted are these: both partners purified.

T1 sequence (Q16537 whole entry): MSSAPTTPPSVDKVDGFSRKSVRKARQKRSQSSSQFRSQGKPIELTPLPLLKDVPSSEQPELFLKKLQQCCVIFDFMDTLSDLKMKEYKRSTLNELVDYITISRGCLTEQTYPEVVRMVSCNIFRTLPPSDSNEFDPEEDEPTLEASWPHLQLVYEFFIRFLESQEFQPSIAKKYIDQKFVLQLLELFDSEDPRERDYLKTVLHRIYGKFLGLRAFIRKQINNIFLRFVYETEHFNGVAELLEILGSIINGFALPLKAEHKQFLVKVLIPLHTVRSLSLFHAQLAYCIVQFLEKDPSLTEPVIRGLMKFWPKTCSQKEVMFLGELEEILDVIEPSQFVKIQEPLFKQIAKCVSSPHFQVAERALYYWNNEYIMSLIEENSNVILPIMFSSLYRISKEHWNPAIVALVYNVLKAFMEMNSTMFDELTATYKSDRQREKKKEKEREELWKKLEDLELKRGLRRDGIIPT

On to LSTIDEEGS [Cyk4 S149E peptide (synthetic, phosphomimetic)], for which, in the test with B′γ1 regulatory subunit, the dissociation constant (Kd) was determined as 1.59 µM and the “fold stronger binding than the native Cyk4 peptide” value came out at 15 fold.

B1: GST-pCyk4 (1–177), Plk1-phosphorylated (domain or fragment, human, UniProt Q9H0H5 1-177, looked up)
chain: MDTMMLNVRNLFEQLVRRVEILSEGNEVQFIQLAKDFEDFRKKWQRTDHELGKYKDLLMKAETERSALDVKLKHARNQVDVEIKRRQRAEADCEKLERQIQLIREMLMCDTSGSIQLSEEQKSALAFLNRGQPSSSNAGNKRLSTIDESGSILSDISFDKTDESLDWDSSLVKTFKL
modifications: phosphorylated by Plk1: mono- to pentakis-phosphorylated forms; sites of the tetrakis form S149, S157, S164 and S170
notes: also called GST-Cyk4; source: phosphorylated by Plk1; not shown: GST, N-terminal, kept
Turning to B1, the binding result in the test with B′ε regulatory subunit is reported as “binds”.

Broadly, the Kd is a measure of binding affinity in units of concentration.
